Molecular target: T1, CD24多肽 (human, UniProt P25063 27-59)
T1 construct: domain: CD24核心区; also called CD24核心区多肽; 抗原肽CD24
T1 peptide (looked up): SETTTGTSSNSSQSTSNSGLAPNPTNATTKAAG
Test: Competitive ELISA by the Friguet method: 10 pM antibody preincubated overnight with 0-6.25e-10 M antigen, then free antibody captured on coated CD24 peptide; KD from linear regression

Kd: 0.84 nM
B1: 单克隆抗体E4 (antibody, V domains shown)
VH: QVKLEESGGGLVQPGGSLKISCAASGPDFSRYWMSWVRQAPGKGLEWIGEINPDYSTINYTPSLRDKFIISRDNAKNTLYLQMSKVRYEDTSLYYCVRQGDYWGQGTSVTVSS
VL: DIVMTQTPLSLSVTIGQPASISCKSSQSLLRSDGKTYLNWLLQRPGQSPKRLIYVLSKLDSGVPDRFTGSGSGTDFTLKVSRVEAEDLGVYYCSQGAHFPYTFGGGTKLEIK
notes: also called E4杂交瘤细胞株抗体
